According to PMC12631311, “Molecular Insights into IAHSP: Influence of the R1611W Mutation on the VPS9 Domain of Alsin” (ACS Omega, 2025):
Substitutions are numbered along the chain they refer to. In names and notes the source's numbering stands. Several values for one entry are separate records, joined by “and”; a condition that tells them apart may be missing. Identical values can stand only once.

Target: the molecule itself
Assay: SEC; Superdex 200 Increase 10/300 GL, 50 mM potassium phosphate pH 8.0, 150 mM NaCl, 0.5 mL/min, room temperature; 310 ug VPS9 WT or 270 ug VPS9 R1611W injected; apparent molecular weights from column calibration

B1: human alsin VPS9 WT (C1551S/C1558S/C1647S) (domain or fragment, UniProt Q96Q42 1513-1657, looked up)
chain: KQPDIALLGFLGVQRKFWPATLSILGESKKVLPTTKDASFASAVESLQQISTTFTPSDKLKVIQQTFEEISQSVLASLHEDFLWSMDDLFPVFLYVVLRARIRNLGSEVHLIEDLMDPYLQHGEQGIMFTTLKASYYQIQREKLN
notes: alsin, human, VPS9 domain, residues 1513-1657 of UniProt Q96Q42, with three Cys to Ser changes in the construct called WT; Cloned in pET28b between NdeI and EcoRI; No cleavage of the tag is described; The N-terminal position is read from the forward primer (thrombin site before the ATG); The printed monomer mass of 16.6 kDa fits the domain without the tag; also called wild-type VPS9 domain
In the case of B1, the “stoichiometry N” value is reported as 4.

B2: human alsin VPS9 R1611W mutant (domain or fragment, UniProt Q96Q42 1513-1657, looked up)
chain: B1 chain with R99W
notes: alsin, human, VPS9 domain, residues 1513-1657 of UniProt Q96Q42; The pathological R1611W mutation was inserted by site-directed mutagenesis into the VPS9 WT (C1551S/C1558S/C1647S) construct; Same construct and tag as m1 with R1611W added; also called VPS R1611W
For B2, the “stoichiometry N” value was 4 and 6.
